The values that follow come from patent US20050066376.

The subject of this data set is T1, Minos transposase (fly cDNA ILMi) (Drosophila hydei).
T1 sequence: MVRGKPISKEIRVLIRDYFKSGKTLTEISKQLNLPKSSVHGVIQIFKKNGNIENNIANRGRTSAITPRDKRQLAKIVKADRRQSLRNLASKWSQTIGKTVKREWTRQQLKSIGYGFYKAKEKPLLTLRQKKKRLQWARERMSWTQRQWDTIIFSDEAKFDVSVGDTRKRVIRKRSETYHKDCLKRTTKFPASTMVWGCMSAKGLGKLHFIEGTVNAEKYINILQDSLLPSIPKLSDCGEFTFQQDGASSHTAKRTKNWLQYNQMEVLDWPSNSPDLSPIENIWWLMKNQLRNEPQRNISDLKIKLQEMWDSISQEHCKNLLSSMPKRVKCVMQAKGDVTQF
Put plainly: cell_activity. Conditions: germ-line transposition frequency in mouse, 12 events in 146 transposon-positive progeny; TA target site duplication.

For “Minos transposon MiCMVGFP (Minos inverted repeats flanking CMV-GFP)”, the activity came out at 8.2%.
